Results taken from patent US20230416330A1, “Optimized GIP Peptide Analogues” (Antag Therapeutics ApS, priority 2019, published 2023).
Starred links: 1 amine or outer side, 2 acyl side, 3 side chain; linkers in the order of their positions; H or OH if unused. Non-standard residues stand in square brackets, D forms with d. Groups on a side chain read outwards from the residue. No end group written: not given here. *: point of attachment. C18 diacid = O=C(O)CCCCCCCCCCCCCCCCC(=O)*; C16 diacid = O=C(O)CCCCCCCCCCCCCCC(=O)*; γGlu = O=C(O)[C@H](CCC(=O)[*:2])N[*:1]; Glutaryl = O=C(CCCC(=O)[*:2])[*:1]; Nle = CCCC[C@H](N)C(=O)O; AEEA = NCCOCCOCC(=O)O; Aib = CC(C)(N)C(=O)O

T1: human GIP receptor (human, UniProt P48546 22-466)
T1 sequence (looked up): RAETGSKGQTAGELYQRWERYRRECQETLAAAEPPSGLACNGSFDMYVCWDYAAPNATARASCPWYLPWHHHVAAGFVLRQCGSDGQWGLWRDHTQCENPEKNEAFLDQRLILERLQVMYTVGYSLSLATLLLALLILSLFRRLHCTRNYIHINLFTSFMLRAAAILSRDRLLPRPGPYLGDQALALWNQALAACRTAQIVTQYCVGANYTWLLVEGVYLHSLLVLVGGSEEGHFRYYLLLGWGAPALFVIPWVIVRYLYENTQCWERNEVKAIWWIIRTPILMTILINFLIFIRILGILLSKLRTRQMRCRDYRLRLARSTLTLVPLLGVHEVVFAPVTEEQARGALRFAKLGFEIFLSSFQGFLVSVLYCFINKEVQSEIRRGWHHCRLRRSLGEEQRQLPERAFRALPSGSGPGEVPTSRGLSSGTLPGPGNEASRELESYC

B1: AT713 (peptide)
peptide: Glutaryl-GTFISEYSI[Aib]LEKIK([AEEA-AEEA-γGlu-C18 diacid])QQEFVEWLLAQKPSSGAPPPS-NH2
SMILES: CC[C@H](C)[C@H](NC(=O)[C@H](CCCCN)NC(=O)[C@H](CCC(=O)O)NC(=O)[C@H](CC(C)C)NC(=O)C(C)(C)NC(=O)[C@@H](NC(=O)[C@H](CO)NC(=O)[C@H](Cc1ccc(O)cc1)NC(=O)[C@H](CCC(=O)O)NC(=O)[C@H](CO)NC(=O)[C@@H](NC(=O)[C@H](Cc1ccccc1)NC(=O)[C@@H](NC(=O)CNC(=O)CCCC(=O)O)[C@@H](C)O)[C@@H](C)CC)[C@@H](C)CC)C(=O)N[C@@H](CCCCNC(=O)COCCOCCNC(=O)COCCOCCNC(=O)CC[C@H](NC(=O)CCCCCCCCCCCCCCCCC(=O)O)C(=O)O)C(=O)N[C@@H](CCC(N)=O)C(=O)N[C@@H](CCC(N)=O)C(=O)N[C@@H](CCC(=O)O)C(=O)N[C@@H](Cc1ccccc1)C(=O)N[C@H](C(=O)N[C@@H](CCC(=O)O)C(=O)N[C@@H](Cc1c[nH]c2ccccc12)C(=O)N[C@@H](CC(C)C)C(=O)N[C@@H](CC(C)C)C(=O)N[C@@H](C)C(=O)N[C@@H](CCC(N)=O)C(=O)N[C@@H](CCCCN)C(=O)N1CCC[C@H]1C(=O)N[C@@H](CO)C(=O)N[C@@H](CO)C(=O)NCC(=O)N[C@@H](C)C(=O)N1CCC[C@H]1C(=O)N1CCC[C@H]1C(=O)N1CCC[C@H]1C(=O)N[C@@H](CO)C(N)=O)C(C)C
B2: AT714 (peptide)
peptide: EGTFISEYSI[Aib]LEKIK([AEEA-AEEA-γGlu-C18 diacid])QQEFVEWLLAQKPSSGAPPPS-NH2
modifications: N-terminus assumed
SMILES: CC[C@H](C)[C@H](NC(=O)[C@H](CCCCN)NC(=O)[C@H](CCC(=O)O)NC(=O)[C@H](CC(C)C)NC(=O)C(C)(C)NC(=O)[C@@H](NC(=O)[C@H](CO)NC(=O)[C@H](Cc1ccc(O)cc1)NC(=O)[C@H](CCC(=O)O)NC(=O)[C@H](CO)NC(=O)[C@@H](NC(=O)[C@H](Cc1ccccc1)NC(=O)[C@@H](NC(=O)CNC(=O)[C@@H](N)CCC(=O)O)[C@@H](C)O)[C@@H](C)CC)[C@@H](C)CC)C(=O)N[C@@H](CCCCNC(=O)COCCOCCNC(=O)COCCOCCNC(=O)CC[C@H](NC(=O)CCCCCCCCCCCCCCCCC(=O)O)C(=O)O)C(=O)N[C@@H](CCC(N)=O)C(=O)N[C@@H](CCC(N)=O)C(=O)N[C@@H](CCC(=O)O)C(=O)N[C@@H](Cc1ccccc1)C(=O)N[C@H](C(=O)N[C@@H](CCC(=O)O)C(=O)N[C@@H](Cc1c[nH]c2ccccc12)C(=O)N[C@@H](CC(C)C)C(=O)N[C@@H](CC(C)C)C(=O)N[C@@H](C)C(=O)N[C@@H](CCC(N)=O)C(=O)N[C@@H](CCCCN)C(=O)N1CCC[C@H]1C(=O)N[C@@H](CO)C(=O)N[C@@H](CO)C(=O)NCC(=O)N[C@@H](C)C(=O)N1CCC[C@H]1C(=O)N1CCC[C@H]1C(=O)N1CCC[C@H]1C(=O)N[C@@H](CO)C(N)=O)C(C)C
B3: AT708 (peptide)
peptide: Glutaryl-GTFISEYSI[Aib]MEKIK([AEEA-AEEA-γGlu-C18 diacid])QQEFVEWLLAQKPSSGAPPPS-OH
SMILES: CC[C@H](C)[C@H](NC(=O)[C@H](CCCCN)NC(=O)[C@H](CCC(=O)O)NC(=O)[C@H](CCSC)NC(=O)C(C)(C)NC(=O)[C@@H](NC(=O)[C@H](CO)NC(=O)[C@H](Cc1ccc(O)cc1)NC(=O)[C@H](CCC(=O)O)NC(=O)[C@H](CO)NC(=O)[C@@H](NC(=O)[C@H](Cc1ccccc1)NC(=O)[C@@H](NC(=O)CNC(=O)CCCC(=O)O)[C@@H](C)O)[C@@H](C)CC)[C@@H](C)CC)C(=O)N[C@@H](CCCCNC(=O)COCCOCCNC(=O)COCCOCCNC(=O)CC[C@H](NC(=O)CCCCCCCCCCCCCCCCC(=O)O)C(=O)O)C(=O)N[C@@H](CCC(N)=O)C(=O)N[C@@H](CCC(N)=O)C(=O)N[C@@H](CCC(=O)O)C(=O)N[C@@H](Cc1ccccc1)C(=O)N[C@H](C(=O)N[C@@H](CCC(=O)O)C(=O)N[C@@H](Cc1c[nH]c2ccccc12)C(=O)N[C@@H](CC(C)C)C(=O)N[C@@H](CC(C)C)C(=O)N[C@@H](C)C(=O)N[C@@H](CCC(N)=O)C(=O)N[C@@H](CCCCN)C(=O)N1CCC[C@H]1C(=O)N[C@@H](CO)C(=O)N[C@@H](CO)C(=O)NCC(=O)N[C@@H](C)C(=O)N1CCC[C@H]1C(=O)N1CCC[C@H]1C(=O)N1CCC[C@H]1C(=O)N[C@@H](CO)C(=O)O)C(C)C
B4: AT706 (peptide)
peptide: Glutaryl-GTFISEYSI[Aib][Nle]EKIK([AEEA-AEEA-γGlu-C18 diacid])QQEFVEWLLAQKPSSGAPPPS-OH
SMILES: CCCC[C@H](NC(=O)C(C)(C)NC(=O)[C@@H](NC(=O)[C@H](CO)NC(=O)[C@H](Cc1ccc(O)cc1)NC(=O)[C@H](CCC(=O)O)NC(=O)[C@H](CO)NC(=O)[C@@H](NC(=O)[C@H](Cc1ccccc1)NC(=O)[C@@H](NC(=O)CNC(=O)CCCC(=O)O)[C@@H](C)O)[C@@H](C)CC)[C@@H](C)CC)C(=O)N[C@@H](CCC(=O)O)C(=O)N[C@@H](CCCCN)C(=O)N[C@H](C(=O)N[C@@H](CCCCNC(=O)COCCOCCNC(=O)COCCOCCNC(=O)CC[C@H](NC(=O)CCCCCCCCCCCCCCCCC(=O)O)C(=O)O)C(=O)N[C@@H](CCC(N)=O)C(=O)N[C@@H](CCC(N)=O)C(=O)N[C@@H](CCC(=O)O)C(=O)N[C@@H](Cc1ccccc1)C(=O)N[C@H](C(=O)N[C@@H](CCC(=O)O)C(=O)N[C@@H](Cc1c[nH]c2ccccc12)C(=O)N[C@@H](CC(C)C)C(=O)N[C@@H](CC(C)C)C(=O)N[C@@H](C)C(=O)N[C@@H](CCC(N)=O)C(=O)N[C@@H](CCCCN)C(=O)N1CCC[C@H]1C(=O)N[C@@H](CO)C(=O)N[C@@H](CO)C(=O)NCC(=O)N[C@@H](C)C(=O)N1CCC[C@H]1C(=O)N1CCC[C@H]1C(=O)N1CCC[C@H]1C(=O)N[C@@H](CO)C(=O)O)C(C)C)[C@@H](C)CC
B5: AT712 (peptide)
peptide: EGTFISEYSI[Aib]LDKIK([AEEA-AEEA-γGlu-C18 diacid])QQDFVEWLLAQKPSSGAPPPS-OH
modifications: N-terminus assumed
SMILES: CC[C@H](C)[C@H](NC(=O)[C@H](CCCCN)NC(=O)[C@H](CC(=O)O)NC(=O)[C@H](CC(C)C)NC(=O)C(C)(C)NC(=O)[C@@H](NC(=O)[C@H](CO)NC(=O)[C@H](Cc1ccc(O)cc1)NC(=O)[C@H](CCC(=O)O)NC(=O)[C@H](CO)NC(=O)[C@@H](NC(=O)[C@H](Cc1ccccc1)NC(=O)[C@@H](NC(=O)CNC(=O)[C@@H](N)CCC(=O)O)[C@@H](C)O)[C@@H](C)CC)[C@@H](C)CC)C(=O)N[C@@H](CCCCNC(=O)COCCOCCNC(=O)COCCOCCNC(=O)CC[C@H](NC(=O)CCCCCCCCCCCCCCCCC(=O)O)C(=O)O)C(=O)N[C@@H](CCC(N)=O)C(=O)N[C@@H](CCC(N)=O)C(=O)N[C@@H](CC(=O)O)C(=O)N[C@@H](Cc1ccccc1)C(=O)N[C@H](C(=O)N[C@@H](CCC(=O)O)C(=O)N[C@@H](Cc1c[nH]c2ccccc12)C(=O)N[C@@H](CC(C)C)C(=O)N[C@@H](CC(C)C)C(=O)N[C@@H](C)C(=O)N[C@@H](CCC(N)=O)C(=O)N[C@@H](CCCCN)C(=O)N1CCC[C@H]1C(=O)N[C@@H](CO)C(=O)N[C@@H](CO)C(=O)NCC(=O)N[C@@H](C)C(=O)N1CCC[C@H]1C(=O)N1CCC[C@H]1C(=O)N1CCC[C@H]1C(=O)N[C@@H](CO)C(=O)O)C(C)C
B6: AT707 (peptide)
peptide: Glutaryl-GTFISEYSIALEKIK([AEEA-AEEA-γGlu-C18 diacid])QQEFVEWLLAQKPSSGAPPPS-OH
SMILES: CC[C@H](C)[C@H](NC(=O)[C@H](CO)NC(=O)[C@H](Cc1ccc(O)cc1)NC(=O)[C@H](CCC(=O)O)NC(=O)[C@H](CO)NC(=O)[C@@H](NC(=O)[C@H](Cc1ccccc1)NC(=O)[C@@H](NC(=O)CNC(=O)CCCC(=O)O)[C@@H](C)O)[C@@H](C)CC)C(=O)N[C@@H](C)C(=O)N[C@@H](CC(C)C)C(=O)N[C@@H](CCC(=O)O)C(=O)N[C@@H](CCCCN)C(=O)N[C@H](C(=O)N[C@@H](CCCCNC(=O)COCCOCCNC(=O)COCCOCCNC(=O)CC[C@H](NC(=O)CCCCCCCCCCCCCCCCC(=O)O)C(=O)O)C(=O)N[C@@H](CCC(N)=O)C(=O)N[C@@H](CCC(N)=O)C(=O)N[C@@H](CCC(=O)O)C(=O)N[C@@H](Cc1ccccc1)C(=O)N[C@H](C(=O)N[C@@H](CCC(=O)O)C(=O)N[C@@H](Cc1c[nH]c2ccccc12)C(=O)N[C@@H](CC(C)C)C(=O)N[C@@H](CC(C)C)C(=O)N[C@@H](C)C(=O)N[C@@H](CCC(N)=O)C(=O)N[C@@H](CCCCN)C(=O)N1CCC[C@H]1C(=O)N[C@@H](CO)C(=O)N[C@@H](CO)C(=O)NCC(=O)N[C@@H](C)C(=O)N1CCC[C@H]1C(=O)N1CCC[C@H]1C(=O)N1CCC[C@H]1C(=O)N[C@@H](CO)C(=O)O)C(C)C)[C@@H](C)CC

Target: T1, human GIP receptor
Assay: cell-based or functional assay

Row | Binder | nM (Kb, Gaddum assay, cAMP) | pKb (Gaddum assay, cAMP)
1 | B1 | 0.31 nM | 9.5
2 | B2 | 0.43 nM | 9.4
3 | Glutaryl-GTFISDYSI[Aib]MDKIK(C16 diacid)QQDFVEWLLAQKPSSGAPPPS-OH [AT715] | 0.19 nM | 9.7
4 | B3 | 0.2 nM | 9.7
5 | B4 | 0.26 nM | 9.6
6 | B5 | 0.39 nM | 9.4
7 | B6 | 0.28 nM | 9.6
8 | EGTFISEYSI[Aib]MEKIK([AEEA-AEEA-γGlu-C18 diacid])QQEFVEWLLAQKPSSGAPPPS-OH [AT709] | 0.24 nM | 9.6
9 | EGTFISEYSIAMEKIK([AEEA-AEEA-γGlu-C18 diacid])QQEFVEWLLAQKPSSGAPPPS-OH [AT710] | 0.73 nM | 9.1
